Reference: patent US20110190142A1, “DETERMINATION OF RENIN-PRORENIN RECEPTOR ACTIVITY” (Charite- Universitatsmedizin Berlin, priority 2006, published 2011)

Tests used:
[1] = system: renin/prorenin receptor (RER); test: Renin- and prorenin-mediated RER activation (RER-PLZF pathway) in HEK293 cells with aliskiren or siRNA; assay type: cell-based, human
Protocol: (§1) For all cell culture studies immortalized human epithelial kidney cells (HEK293 cells) were used. […] Additional inhibition with 1 μM aliskiren was performed as indicated. 1 hour after pre-treatment with losartan±aliskiren cells were stimulated with either 5 nM renin, 5 nM prorenin, or the respective vehicle. Cells were harvested for mRNA expression analysis or determination of viable cell number and apoptosis after 3 or 24 hours, respectively. These experimental procedures have been described in detail previously (Schefe et al., 2006). All experiments were performed in independent triplicates.

[2] = system: renin/prorenin receptor (RER); test: PI3K-p85α promoter luciferase reporter assay under renin stimulation; assay type: cell-based, human; settings: PLZF-overexpressing HEK293 cells
Protocol: The indicated cell types were seeded on day 1 in 12-well plates. 100 ng of indicated pGL3-basic constructs (encoding firefly luciferase) and 20 ng of phRL-null plasmid (encoding humanized Renilla luciferase for standardization of promoter activity; Promega) per well were transfected on day 2 at 60-80% confluency using GeneJuice (Merck Biosciences, Bad Soden, Germany) according to the manufacturer's protocol. Cells were harvested 48 hours after transfection using Passive Lysis Buffer (Promega). Reporter activities were measured in a Pharmingen Monolight 3010 luminometer (BD Biosciences, Erembodegem, Belgium) using the Dual-Luciferase Reporter Assay System (Promega). Promoter activity is expressed as relative luciferase activity (RLA) (Funke-Kaiser et al., 2003a). RLA data represent the mean±standard deviation of at least three single, parallel transfection experiments.
(§2) HEK293 cells were seeded in 24-well plates and transfected with either 100 ng of pCEP4-PLZF-myc expression vector, 50 ng of indicated pGL3-basic construct and 10 ng of phRL-null plasmid (for luciferase assay), or 100 ng of pCEP4-PLZF-myc alone (for PCR experiments) per well as described above. siRNA transfection, renin stimulation and determination of reporter activity were performed as described above, except for an exceeded renin stimulation period of 3 hours.

[3] = system: RER protein; test: Down-regulation of RER protein by siRNA (Western blot, densitometry); assay type: cell-based, human; settings: Western blot of total cell lysate
Protocol: For analysis of subcellular localization of RER, 9 μg (membrane) and 12 μg (cytosolic) protein were loaded per lane, separated in a 10% SDS-PAGE and transferred to a nitrocellulose membrane. Western blot analysis was performed with an antibody against human RER (corresponding ATP6AP2; goat polyclonal, ab5959, Abcam, Cambridge, UK) at a dilution of 0.5 μg/ml. Horseradish peroxidase-conjugated anti-goat antibody (rabbit polyclonal; 1:2,500; DAKO, Hamburg, Germany) was used as secondary antibody.
For PLZF translocation experiments HEK293 cells were seeded on day 1 in 6-well plates. 250 ng of pCEP4-PLZF-myc expression vector per well were transfected on day 2 at 40-60% confluency using GeneJuice (Merck Biosciences, Bad Soden, Germany) according to the manufacturer's protocol. On day 3 the cells were transfected with 50 nM siRNA against the RER [5′-GCUCCGUAAUCGCCUGUUU (sense strand), (SEQ ID No. 38); 5′-AAACAGGCGAUUACGGAGC (antisense strand), (SEQ ID No. 39)] or GFP control siRNA (Eurogentec, Seraing, Belgium) using jetSI-ENDO (Eurogentec) following the standard procedure. […] Chemoluminescence was detected with ECL (Amersham, München, Germany), and subsequent exposition to Hyperfilm (Amersham).

[4] = system: renin/prorenin receptor (RER); test: PI3K-p85α mRNA by quantitative real-time PCR after renin/prorenin stimulation of HEK293 cells; assay type: cell-based, human
Protocol: as §2
(§3) RNA isolation and cDNA synthesis were performed as described above. qPCR was performed applying a SYBR Green I reaction mix and run on a Stratagene Mx3000P (Stratagene, La Jolla, Calif., USA) using the following primers: […]
(§4) Data represents the mean expression level±standard deviation (standardized to 18S rRNA expression) calculated according to the ddCT method of at least three independent measurements. Equality of PCR efficiencies has been verified applying the program LinRegPCR (Ramakers et al. 2003) and ANOVA testing.
as §1

[5] = system: RER mRNA; test: Down-regulation of RER mRNA by siRNA (real-time PCR); assay type: cell-based, human; settings: HEK293 cells
Protocol: For PLZF translocation experiments HEK293 cells were seeded on day 1 in 6-well plates. 250 ng of pCEP4-PLZF-myc expression vector per well were transfected on day 2 at 40-60% confluency using GeneJuice (Merck Biosciences, Bad Soden, Germany) according to the manufacturer's protocol. On day 3 the cells were transfected with 50 nM siRNA against the RER [5′-GCUCCGUAAUCGCCUGUUU (sense strand), (SEQ ID No. 38); 5′-AAACAGGCGAUUACGGAGC (antisense strand), (SEQ ID No. 39)] or GFP control siRNA (Eurogentec, Seraing, Belgium) using jetSI-ENDO (Eurogentec) following the standard procedure. On day 5, after 24 hours of starving in serum-free medium, cells were stimulated with 10 nM human recombinant renin (mammalian expression; kind gift from Dominik N. Müller, MDC Berlin) or vehicle (0.1% DMSO in PBS) for 2 hours. Western blot was performed with anti-c-myc antibody (mouse monoclonal, 9B11; 1:2,000; Cell Signalling) and horseradish peroxidase-conjugated anti-mouse antibody (rabbit polyclonal; 1:2,500; DAKO). Chemoluminescence was detected with ECL (Amersham, München, Germany), and subsequent exposition to Hyperfilm (Amersham). […]

[6] = system: renin/prorenin receptor (RER); test: RER mRNA by quantitative real-time PCR after renin/prorenin stimulation of HEK293 cells; assay type: cell-based, human
Protocol: as §2, §3, §4, §1

[7] = system: HEK293 cells; test: Number of viable cells (ATP concentration); assay type: cell-based, human
Protocol: as §1

[8] = system: HEK293 cells; test: Caspase 3/7 activity as a measure of apoptosis; assay type: cell-based, human
Protocol: as §1

[9] = target: endogenous human RER of HEK293 cells (human) (UniProt O75787); test: cell-based or functional assay
[10] = target: T1, PLZF (promyelocytic zinc finger protein, ZBTB16), endogenous (Homo sapiens, UniProt Q05516 Q05516:1-673); test: ChIP-qPCR in HEK293; about 6-fold increased recruitment to the RER promoter region around the element after renin vs vehicle; settings: tags: none (endogenous, HEK293)
T1 sequence: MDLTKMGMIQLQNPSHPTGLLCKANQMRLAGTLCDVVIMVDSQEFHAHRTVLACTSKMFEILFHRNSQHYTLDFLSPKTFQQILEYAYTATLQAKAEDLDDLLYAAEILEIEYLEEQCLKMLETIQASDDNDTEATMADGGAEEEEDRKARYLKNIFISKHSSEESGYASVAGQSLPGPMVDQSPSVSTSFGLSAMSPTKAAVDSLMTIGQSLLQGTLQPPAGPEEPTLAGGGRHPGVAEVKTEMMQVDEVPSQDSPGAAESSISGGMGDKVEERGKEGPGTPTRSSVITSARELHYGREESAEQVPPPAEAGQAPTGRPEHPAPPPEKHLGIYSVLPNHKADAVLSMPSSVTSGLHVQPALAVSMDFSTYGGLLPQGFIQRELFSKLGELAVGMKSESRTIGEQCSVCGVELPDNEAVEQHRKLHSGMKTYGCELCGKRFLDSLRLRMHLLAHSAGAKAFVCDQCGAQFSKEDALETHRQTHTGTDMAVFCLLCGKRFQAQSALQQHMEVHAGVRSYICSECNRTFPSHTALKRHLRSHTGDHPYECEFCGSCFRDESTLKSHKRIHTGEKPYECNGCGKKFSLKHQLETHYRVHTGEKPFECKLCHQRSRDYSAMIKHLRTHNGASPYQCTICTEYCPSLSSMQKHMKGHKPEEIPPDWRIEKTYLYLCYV

[11] = HEK293 cells transfected with scrambled control siRNA
[12] = HEK293 cells, 5 nM, 3 hours, 1 μM losartan pre-treatment

Chain of endogenous human RER of HEK293 cells (human) (O75787 17-350): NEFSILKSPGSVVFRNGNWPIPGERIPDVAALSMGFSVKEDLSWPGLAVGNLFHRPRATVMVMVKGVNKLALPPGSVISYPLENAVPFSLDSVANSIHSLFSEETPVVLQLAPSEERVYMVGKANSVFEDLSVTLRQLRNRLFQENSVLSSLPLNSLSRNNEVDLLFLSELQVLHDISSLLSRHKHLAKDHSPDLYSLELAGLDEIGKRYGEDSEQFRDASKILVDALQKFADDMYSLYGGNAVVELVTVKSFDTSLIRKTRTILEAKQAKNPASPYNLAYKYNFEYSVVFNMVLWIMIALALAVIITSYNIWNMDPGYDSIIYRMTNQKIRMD

## siRNA against the RER: siRNA 5′-GCUCCGUAAUCGCCUGUUU (sense), 5′-AAACAGGCGAUUACGGAGC (antisense), SEQ ID No. 38/39 (listed as RNA, chemistry not given here; listed as Homo sapiens)
[1]; siRNA 24 hours before prorenin
  influence on transcriptional and cellular effects of prorenin stimulation: completely abolished
[2]
  influence on renin-induced increase in PI3K-p85α promoter activity: abolished
[3]
  RER protein reduced to (densitometric measurement, compared to control): less than 10%
[4]; HEK293 cells, regardless of PLZF expression level
  influence on renin induction of PI3K-p85α mRNA: abolished this induction
[5]; 50 nM siRNA
  RER mRNA repressed to: 29.8±5.2%
[5]; siRNA transfected 24 hours before stimulation
  average reduction of RER mRNA: 81.1±4.5%

## COCCCOc1cc(C[C@@H](C[C@H](N)[C@@H](O)C[C@H](C(=O)NCC(C)(C)C(N)=O)C(C)C)C(C)C)ccc1OC [aliskiren]
[1]; pre-treatment with 1 μM aliskiren
  influence on the effects of renin and prorenin (RER and PI3K-p85α transcription, proliferation, apoptosis): not affected

B1: prorenin (ligand, UniProt P00797 24-406, looked up, species assumed)
pro-form: LPTDTTTFKRIFLKRMPSIRESLKERGVDMARLGPEWSQPMKRLTLGNTTSSVILTNYMDTQYYGEIGIGTPPQTFKVVFDTGSSNVWVPSSKCSRLYTACVYHKLFDASDSSSYKHNGTELTLRYSTGTVSGFLSQDIITVGGITVTQMFGEVTEMPALPFMLAEFDGVVGMGFIEQAIGRVTPIFDNIISQGVLKEDVFSFYYNRDSENSQSLGGQIVLGGSDPQHYEGNFHYINLIKTGVWQIQMKGVSVGSSTLLCEDGCLALVDTGASYISGSTSSIEKLMEALGAKKRLFDYVVKCNEGPTLPDISFHLGGKEYTLTSADYVFQESYSSKKLCTLAIHAMDIPPPTGPTWALGATFIRKFYTEFDRRNNRIGFALAR
modifications: pro-form
[6]; [11]
  RER mRNA, % of vehicle control: 59.7%
[6]; [12]
  RER mRNA, % of vehicle control: 63.6%
[7]; [11]
  increase of viable cell number: 87.5%
[7]; HEK293 cells, 5 nM, 24 hours
  increase of viable cell number compared to vehicle: 123.8%
[8]; [11]
  attenuation of caspase 3/7 activity: 53.4%
[8]; HEK293 cells, 5 nM, 24 hours
  reduction of caspase 3/7 activity: 35.7%
[4]; [11]
  PI3K-p85α mRNA, % of vehicle control: 212.8%
[4]; [12]
  PI3K-p85α mRNA, % of vehicle control: 175.8%
[9]
  PI3K-p85α mRNA after 3 hours, 5 nM prorenin, HEK293 cells (% of vehicle control): 176
  PI3K-p85α mRNA, prorenin, HEK293 cells with scrambled control siRNA (% of vehicle control): 213
  RER mRNA after 3 hours, 5 nM prorenin, HEK293 cells (% of vehicle control): 63.6
  RER mRNA, prorenin, HEK293 cells with scrambled control siRNA (% of vehicle control): 59.7
  caspase 3/7 activity after 24 hours, 5 nM prorenin, HEK293 cells: 35.7 % decrease
  caspase 3/7 activity, prorenin, HEK293 cells with scrambled control siRNA: 53.4 % decrease
  viable cell number after 24 hours, 5 nM prorenin, HEK293 cells: 124 % increase
  viable cell number, prorenin, HEK293 cells with scrambled control siRNA: 87.5 % increase

B2: RER promoter PLZF element, native (dsDNA)
DNA 1: CTTAACTACAGTTTTCACTGG
DNA 2: CCAGTGAAAACTGTAGTTAAG
[10]
  binding signal: 6 fold
